Assay results from patent US20240261333A1, “NOVEL TARGETS FOR ENHANCING ANTI-TUMOR IMMUNITY” (THE BROAD INSTITUTE, INC., priority 2021, published 2024).

T1: B3GNT2 (Homo sapiens, UniProt Q9NY97)
T1 construct: The respective ORFs of candidate genes [CD274 (NM_014143), MCL1 (NM_021960), JUNB (NM_002229), and B3GNT2 (NM_006577)] were synthesized; expressed in transfected cells; host or cells: A375 melanoma cells (lentiviral ORF overexpression)
T1 sequence (Q9NY97 1-397): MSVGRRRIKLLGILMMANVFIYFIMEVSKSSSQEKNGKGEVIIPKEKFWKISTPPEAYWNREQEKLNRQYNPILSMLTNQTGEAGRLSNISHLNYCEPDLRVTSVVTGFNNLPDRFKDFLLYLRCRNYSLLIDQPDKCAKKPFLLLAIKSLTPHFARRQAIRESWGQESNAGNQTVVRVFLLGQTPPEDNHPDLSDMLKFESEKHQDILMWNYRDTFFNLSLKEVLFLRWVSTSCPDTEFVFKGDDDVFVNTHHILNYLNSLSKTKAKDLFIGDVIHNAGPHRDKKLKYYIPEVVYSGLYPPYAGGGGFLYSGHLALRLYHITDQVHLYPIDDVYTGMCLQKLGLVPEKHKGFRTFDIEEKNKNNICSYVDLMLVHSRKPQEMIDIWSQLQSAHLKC

B1: TIMP3 (protein)
chain: CTCSPSHPQDAFCNSDIVIRAKVVGKKLVKEGPFGTLVYTIKQMKMYRGFTKMPHVQYIHTEASESLCGLKLEVNKYQYLLTGRVYDGKMYTGLCNFVERWDQLTLSQRKGLNYRYHLGCNCKIKSCYYLPCFVTSKNECLWTDMLSNFGYPGYQSKHYACIRQKGGYCSWYRGWAPPDKSIINATDP
B2: RBM39 (protein)
chain: ADDIDIEAMLEAPYKKDENKLSSANGHEERSKKRKKSKSRSRSHERKRSKSKERKRSRDRERKKSKSRERKRSRSKERRRSRSRSRDRRFRGRYRSPYRRRSRSKSPFRKDKSPVREPIDNLTPEERDARTVFCMQLAARIRPRDLEEFFSTVGKVRDVRMISDRNSRRSKGIAYVEFVDVSSVPLAIGLTGQRVLGVPIIVQASQAEKNRAAAMANNLQKGSAGPMRLYVGSLHFNITEDMLRGIFEPFGRIESIQLMMDSETGRSKGYGFITFSDSECAKKALEQLNGFELAGRPMKVGHVTERTDASSASSFLDSDELERTGIDLGTTGRLQLMARLAEGTGLQIPPAAQQALQMSGSLAFGAVAEFSFVIDLQTRLSQQTEASALAAAASVQPLATQCFQLSNMFNPQTEEEVGWDTEIKDDVIEECNKHGGVIHIYVDKNSAQGNVYVKCPSIAAAIAAVNALHGRWFAGKMITAAYVPLPTYHNLFPDSMTATQLLVPSRR
B3: CPSF6 (protein)
chain: MADGVDHIDIYADVGEEFNQEAEYGGHDQIDLYDDVISPSANNGDAPEDRDYMDTLPPTVGDDVGKGAAPNVVYTYTGKRIALYIGNLTWWTTDEDLTEAVHSLGVNDILEIKFFENRANGQSKGFALVGVGSEASSKKLMDLLPKRELHGQNPVVTPCNKQFLSQFEMQSRKTTQSGQMSGEGKAGPPGGSSRAAFPQGGRGRGRFPGAVPGGDRFPGPAGPGGPPPPFPGNLIKHLVKGTRPLFLETRIPWHMGHSIEEIPIFGLKAGQTPPRPPLGPPGPPGPPGPPPPGQVLPPPLAGPPNRGDRPPPPVLFPGQPFGQPPLGPLPPGPPPPVPGYGPPPGPPPPQQGPPPPPGPFPPRPPGPLGPPLTLAPPPHLPGPPPGAPPPAPHVNPAFFPPPTNSGMPTSDSRGPPPTDPYGRPPPYDRGDYGPPGREMDTARTPLSEAEFEEIMNRNRAISSSAISRAVSDASAGDYGSAIETLVTAISLIKQSKVSADDRCKVLISSLQDCLHGIESKSYGSGSRRERSRERDHSRSREKSRRHKSRSRDRHDDYYRERSRERERHRDRDRDRDRERDREREYRHR
B4: HADHB (protein)
chain: AAPAVQTKTKKTLAKPNIRNVVVVDGVRTPFLLSGTSYKDLMPHDLARAALTGLLHRTSVPKEVVDYIIFGTVIQEVKTSNVAREAALGAGFSDKTPAHTVTMACISANQAMTTGVGLIASGQCDVIVAGGVELMSDVPIRHSRKMRKLMLDLNKAKSMGQRLSLISKFRFNFLAPELPAVSEFSTSETMGHSADRLAAAFAVSRLEQDEYALRSHSLAKKAQDEGLLSDVVPFKVPGKDTVTKDNGIRPSSLEQMAKLKPAFIKPYGTVTAANSSFLTDGASAMLIMAEEKALAMGYKPKAYLRDFMYVSQDPKDQLLLGPTYATPKVLEKAGLTMNDIDAFEFHEAFSGQILANFKAMDSDWFAENYMGRKTKVGLPPLEKFNNWGGSLSLGHPFGATGCRLVMAAANRLRKEGGQYGLVAACAAGGQGHAMIVEAYPK
B5: SERBP1 (protein)
chain: PGHLQEGFGCVVTNRFDQLFDDESDPFEVLKAAENKKKEAGGGGVGGPGAKSAAQAAAQTNSNAAGKQLRKESQKDRKNPLPPSVGVVDKKEETQPPVALKKEGIRRVGRRPDQQLQGEGKIIDRRPERRPPRERRFEKPLEEKGEGGEFSVDRPIIDRPIRGRGGLGRGRGGRGRGMGRGDGFDSRGKREFDRHSGSDRSSFSHYSGLKHEDKRGGSGSHNWGTVKDELTESPKYIQKQISYNYSDLDQSNVTEETPEGEEHHPVADTENKENEVEEVKEEGPKEMTLDEWKAIQNKDRAKVEFNIRKPNEGADGQWKKGFVLHKSKSEEAHAEDSVMDHHFRKPANDITSQLEINFGDLGRPGRGGRGGRGGRGRGGRPNRGSRTDKSSASAPDVDDPEAFPALA
B6: CSE1L (protein)
chain: MELSDANLQTLTEYLKKTLDPDPAIRRPAEKFLESVEGNQNYPLLLLTLLEKSQDNVIKVCASVTFKNYIKRNWRIVEDEPNKICEADRVAIKANIVHLMLSSPEQIQKQLSDAISIIGREDFPQKWPDLLTEMVNRFQSGDFHVINGVLRTAHSLFKRYRHEFKSNELWTEIKLVLDAFALPLTNLFKATIELCSTHANDASALRILFSSLILISKLFYSLNFQDLPEFFEDNMETWMNNFHTLLTLDNKLLQTDLVSNAIQFLASVCERPHYKNLFEDQNTLTSICEKVIVPNMEFRAADEEAFEDNSEEYIRRDLEGSDIDTRRRAACDLVRGLCKFFEGPVTGIFSGYVNSMLQEYAKNPSVNWKHKDAAIYLVTSLASKAQTQKHGITQANELVNLTEFFVNHILPDLKSANVNEFPVLKADGIKYIMIFRNQVPKEHLLVSIPLLINHLQAESIVVHTYAAHALERLFTMRGPNNATLFTAAEIAPFVEILLTNLFKALTLPGSSENEYIMKAIMRSFSLLQEAIIPYIPTLITQLTQKLLAVSKNPSKPHFNHYMFEAICLSIRITCKANPAAVVNFEEALFLVFTEILQNDVQEFIPYVFQVMSLLLETHKNDIPSSYMALFPHLLQPVLWERTGNIPALVRLLQAFLERGSNTIASAAADKIPGLLGVFQKLIASKANDHQGFYLLNSIIEHMPPESVDQYRKQIFILLFQRLQNSKTTKFIKSFLVFINLYCIKYGALALQEIFDGIQPKMFGMVLEKIIIPEIQKVSGNVEKKICAVGITKLLTECPPMMDTEYTKLWTPLLQSLIGLFELPEDDTIPDEEHFIDIEDTPGYQTAFSQLAFAGKKEHDPVGQMVNNPKIHLAQSLHKLSTACPGRVPSMVSTSLNAEALQYLQGYLQAASVTLL
B7: SRP14 (protein)
chain: VLLESEQFLTELTRLFQKCRTSGSVYITLKKYDGRTKPIPKKGTVEGFEPADNKCLLRATDGKKKISTVVSSKEVNKFQMAYSNLLRANMDGLKKRDKKNKTKKTKAAAAAAAAAPAAAATAPTTAATTAATAAQ
B8: DDOST (protein)
chain: SGPRTLVLLDNLNVRETHSLFFRSLKDRGFELTFKTADDPSLSLIKYGEFLYDNLIIFSPSVEDFGGNINVETISAFIDGGGSVLVAASSDIGDPLRELGSECGIEFDEEKTAVIDHHNYDISDLGQHTLIVADTENLLKAPTIVGKSSLNPILFRGVGMVADPDNPLVLDILTGSSTSYSFFPDKPITQYPHAVGKNTLLIAGLQARNNARVIFSGSLDFFSDSFFNSAVQKAAPGSQRYSQTGNYELAVALSRWVFKEEGVLRVGPVSHHRVGETAPPNAYTVTDLVEYSIVIQQLSNGKWVPFDGDDIQLEFVRIDPFVRTFLKKKGGKYSVQFKLPDVYGVFQFKVDYNRLGYTHLYSSTQVSVRPLQHTQYERFIPSAYPYYASAFSMMLGLFIFSIVFLHMKEKEKSD
B9: CHCHD6 (protein)
chain: GSTESSEGRRVSFGVDEEERVRVLQGVRLSENVVNRMKEPSSPPPAPTSSTFGLQDGNLRAPHKESTLPRSGSSGGQQPSGMKEGVKRYEQEHAAIQDKLFQVAKREREAATKHSKASLPTGEGSISHEEQKSVRLARELESREAELRRRDTFYKEQLERIERKNAEMYKLSSEQFHEAASKMESTIKPRRVEPVCSGLQAQILHCYRDRPHEVLLCSDLVKAYQRCVSAAHKG

Target: T1, B3GNT2
Experiment: Co-IP of FLAG-tagged B3GNT2 followed by mass spectrometry
Format: cell-based
Design: C-term IgG / C-term flag: unit not given here
Details: Co-IP followed by mass spectrometry of B3GNT2; C-term tag, FLAG pull-down
Procedure, shortened: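 FLAG-tagged B3GNT2 immunoprecipitated from cell lysate (HEPES, 1% Triton X-100, 150 mM NaCl) with anti-FLAG versus […], overnight at 4° C, then captured on Protein A/G magnetic beads for 4 h. Two biological replicates per condition. Peptides fractionated and analyzed by nano-LC on an Orbitrap Elite in data-dependent mode.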

| Molecule | C-term flag |
| --- | --- |
| B1 | 3 |
| B2 | 5 |
| B3 | 35 |
| B4 | 3 |
| B5 | 10 |
| B6 | 3 |
| B7 | 3 |

Same assay, conditions: Co-IP followed by mass spectrometry of B3GNT2; C-term tag, IgG pull-down

| Molecule | C-term IgG |
| --- | --- |
| B1 | 0 |
| B2 | 3 |
| B3 | 33 |
| B4 | 0 |
| B5 | 5 |
| B6 | 0 |
| B7 | 0 |

Same assay, conditions: Co-IP followed by mass spectrometry of B3GNT2; N-term tag, FLAG pull-down

| Molecule | N-term FLAG |
| --- | --- |
| B1 | 0 |
| B2 | 4 |
| B3 | 30 |
| B4 | 0 |
| B5 | 0 |
| B6 | 0 |
| B7 | 0 |

Same assay, conditions: Co-IP followed by mass spectrometry of B3GNT2; N-term tag, IgG pull-down

| Molecule | N-term IgG |
| --- | --- |
| B1 | 0 |
| B2 | 5 |
| B3 | 28 |
| B4 | 0 |
| B5 | 4 |
| B6 | 0 |
| B7 | 0 |

Same assay, conditions: Co-IP with FLAG antibody, C-terminally FLAG-tagged B3GNT2; mass spectrometry count, unit not given

| Molecule | C-term flag |
| --- | --- |
| B8 | 3 |
| B9 | 3 |

Same assay, conditions: Co-IP with FLAG antibody, N-terminally FLAG-tagged B3GNT2; mass spectrometry count, unit not given

| Molecule | N-term FLAG |
| --- | --- |
| B8 | 0 |
| B9 | 0 |

Same assay, conditions: Co-IP with IgG control antibody, C-terminally FLAG-tagged B3GNT2; mass spectrometry count, unit not given

| Molecule | C-term IgG |
| --- | --- |
| B8 | 0 |
| B9 | 0 |

Same assay, conditions: Co-IP with IgG control antibody, N-terminally FLAG-tagged B3GNT2; mass spectrometry count, unit not given

| Molecule | N-term IgG |
| --- | --- |
| B8 | 0 |
| B9 | 0 |
